Test [1] has as its target T1, human serum albumin (human, UniProt P02768 25-609).
T1 construct: also called HSA; human albumin
The experiment in a line: affinity determination, method not stated.

The target in a further test is T2, rabbit serum albumin (rabbit, UniProt P49065 25-608).
T2 construct: also called rabbit albumin
The experiment in a line: BLI Octet RED96, albumin on AR2G sensors, VHH 1600-25 nM. On the technique in general: Biolayer interferometry detects binding as a change in optical thickness at a sensor tip.

Test [2] concerns the target T3, mouse serum albumin (mouse, UniProt P07724 25-608).
T3 construct: also called mouse albumin
The experiment in a line: BLI Octet RED96, mouse albumin, reference SA1_S30K.

The target of the next test is T4, dog serum albumin (dog, UniProt P49822 25-608).
T4 construct: also called dog SA; dog albumin
The experiment in a line: BLI Octet RED96, albumin on AR2G sensors, VHH 800-12.5 nM, 1:1 model.

Another test has as its target T5, horse serum albumin (horse, UniProt P35747 25-607).
T5 construct: also called horse SA; horse albumin
The test is described as above.

The target of test [3] is T1, human serum albumin. Put plainly: BLI off-rate screen, periplasmic extract 1/4 in PBS, HSA on AR2G sensors.
Procedure: (§1) Off-rate was analyzed by BioLayer Interferometry on an Octet RED96 (Fortebio) instrument using human serum albumin (HSA) coated Octet AR2G sensors (HSA was coupled at 20 μg/mL at pH 5.0 as detailed in Fortebio Technical Note 26).
The target of test [4] is T1, human serum albumin. Put plainly: BLI Octet RED96, albumin on AR2G sensors, VHH 100-1.5 nM.
Test [5] concerns the target T6, cynomolgus monkey serum albumin (cynomolgus monkey).
T6 construct: also called cyno albumin
The test is described as above.

For test [6], the target named is T3, mouse serum albumin. Described as above.
Test [7] concerns the target T7, rat serum albumin (rat, UniProt P02770 25-608).
T7 construct: also called rat albumin
Described as above.

Test [8] has as its target T1, human serum albumin. Put plainly: BLI Octet RED96, HSA on AR2G sensors, VHH 100-1.5 nM (column head says nM; values look like M).
For test [9], the target named is T1, human serum albumin. Put plainly: BLI Octet RED96, HSA on AR2G sensors, VHH 100-1.5 nM.
For the next test, the target named is T8, cat serum albumin (cat, UniProt P49064 25-608).
T8 construct: also called cat SA
Put plainly: BLI Octet RED96, albumin on AR2G sensors.

A further test has as its target T9, pig serum albumin (pig, UniProt P08835 25-607).
T9 construct: also called pig SA
The experiment in a line: BLI Octet RED96, albumin on AR2G sensors.

In test [10] the target is T7, rat serum albumin. The experiment in a line: BLI Octet RED96, rat albumin, reference SA1_S30K.
A further test addresses T10, bovine serum albumin (bovine, UniProt P02769 25-607).
T10 construct: also called bovine albumin
Put plainly: BLI Octet RED96, albumin on AR2G sensors.

Test [11] has as its target T1, human serum albumin. Put plainly: BLI off-rate screen, periplasmic extract 1/4 in 75 mM NaAc pH 5.5, HSA on AR2G sensors.
Procedure: as §1
The target of test [12] is T1, human serum albumin. Put plainly: BLI Octet RED96, HSA on AR2G sensors.
Test [13] addresses T1, human serum albumin. The experiment in a line: BLI Octet RED96, albumin on AR2G sensors (as in Example 4).
Test [14] concerns the target T6, cynomolgus monkey serum albumin. Described as above.

Changes are numbered by the printed parent chain. Values joined by “and” are separate entries in the source; they are usually repeats but may differ in a detail not shown here. Equal entries are not always repeated.

Procedure for cat serum albumin: (§2) 10 mg of lyophilized cat, dog, horse or pig serum (HSA) albumin (Sigma) was resuspended in 1 mL of PBS (10 μg/μL). This was used at 20 μg/mL in the “Ligand scouting immobilization conditions” protocol for AR2G Biosensors as detailed in Fortebio Technical Note 26, in conjunction with a Fortebio Octet Red96 machine. Only the pH 5.0 and pH 4.0 condition were tested.
(§3) After data acquisition, the profiles were analyzed using the Octet Data analysis software v9.0.
Procedure for dog serum albumin: as §2, §3
Procedure for horse serum albumin: as §2, §3
Procedure for pig serum albumin: as §2, §3

B1: VHH-GFP-SA1_S30K (bispecific antibody)
chain: QVQLQESGGALVQPGGSLRLSCAASGFPVNRYSMRWYRQAPGKEREWVAGMSSAGDRSSYEDSVKGRFTISRDDARNTVYLQMNSLKPEDTAVYYCNVNVGFEYWGQGTQVTVSSGGSGGSGGSGGSGGSGGSGGSGGSGGSGGSGGSGGSGGSGGSGGSGGSGGSGGSGGSGGSQVQLQESGGGLVQAGGSLRLSCAASGRNIKEYVMGWFRQAPGKEREFVAAISWSAGNIYYADSVKGRFTISRDNAKNTVHLQMNTLRPEDTAVYYCAAGRYSAWYVAAYEYDYWGQGTQVTVSS
notes: also called VHH-GFP-SA26
By Kd is commonly meant the free concentration of one partner at which half of the binding sites on the other are occupied at equilibrium, for simple one-to-one binding. For B1, binding in the test with human serum albumin [1] was put at a Kd of 5 nM.

B2: SA1 VHH (VHH)
VHH: QVQLQESGGGLVQAGGSLRLSCAASGRNISEYVMGWFRQAPGKEREFVAAISWSAGNIYYADSVKGRFTISRDNAKNTVHLQMNTLRPEDTAVYYCAAGRYSAWYVAAYEYDYWGQGTQVTVSS
notes: From WO2014/037419; made in E. coli WK6 periplasm; also called non-mutated SA1; original SA1 VHH
What is called koff is a measure of how fast the partners let go of each other. The term kon denotes the rate constant with which the complex forms. Consider B2, for which the Kd with rabbit serum albumin was 600 nM; with dog serum albumin, 126 nM; in the test with horse serum albumin it was 121 nM; with human serum albumin [4], 0.9 nM; in [5], 0.37 nM; with mouse serum albumin [6], 0.66 nM. In addition, the Kd worked out at 0.45 nM with rat serum albumin [7] and 1.15 nM with human serum albumin [8]. Further, the figures for the “fold lower affinity than SA1_S30K” value in the test with mouse serum albumin [2] and with rat serum albumin [10] were 2 fold and 20 fold, respectively. The off-rate constant (koff) with dog serum albumin was 0.0158 s⁻¹; with horse serum albumin it was 0.00483 s⁻¹; with human serum albumin [3], 0.00222 s⁻¹ and 0.00199 s⁻¹; in the test with human serum albumin [9] it was 0.00022 s⁻¹; with human serum albumin [11], 0.000972 s⁻¹ and 0.00119 s⁻¹. For the same molecule, the on-rate (kon) with dog serum albumin came to 123000 M⁻¹ s⁻¹; with horse serum albumin it was 52100 M⁻¹ s⁻¹. For the same molecule, the binding result is “no binding (tested: 800 nM (highest concentration))” with cat serum albumin, “no binding (tested: 800 nM (highest concentration))” with pig serum albumin and “no binding” with bovine serum albumin.

B3: SA1-biotinylated (VHH)
VHH: B2 VHH
modifications: labeled with NHS-PEG4-Biotin at a 5/1 molar ratio of biotin/VHH; labelled residues not determined
notes: also called biotinylated SA1
As for B3, the affinity with human serum albumin [8], expressed as Kd, was 1.97 nM. Moreover, the dissociation rate constant (koff) with human serum albumin [9] was determined as 0.000166 s⁻¹.

B4: SA1_S30K-biotinylated (VHH)
VHH: B2 VHH with S30K
modifications: labeled with NHS-PEG4-Biotin at a 5/1 molar ratio of biotin/VHH; the filing says the higher signal is likely related to the additional lysine at position 30; labelled residues not determined
notes: also called biotinylated SA1_S30K VHH
In turn, B4 showed a Kd with human serum albumin [8] of 1.49 nM. The koff in the test with human serum albumin [9] came out at 0.000187 s⁻¹. In the test with human serum albumin [12], the “fold change in KD or kon or koff against the unbiotinylated VHH” value is below 2 fold.

B5: SA1_S30K VHH (VHH)
VHH: B2 VHH with S30K
notes: Made in E. coli WK6 periplasm; also called SA1_S3OK; SA1_S30K mutant variant
In the case of B5, the dissociation constant (Kd) stood at 160 nM with dog serum albumin; 201 nM with horse serum albumin; 1.28 nM with human serum albumin [13]; 0.57 nM in test [14]; 0.91 nM with human serum albumin [4]; 0.38 nM in [5]. In addition, the dissociation constant (Kd) with mouse serum albumin [6] turned out to be 0.29 nM; with rat serum albumin [7], 0.02 nM; with human serum albumin [8], 0.825 nM. In addition, the koff with dog serum albumin is 0.0181 s⁻¹; with horse serum albumin, 0.0103 s⁻¹; in the test with human serum albumin [3], 0.00141 s⁻¹; with human serum albumin [9] it was 0.000203 s⁻¹; with human serum albumin [11] it was 0.00181 s⁻¹. Also, the kon turned out to be 166000 M⁻¹ s⁻¹ with dog serum albumin and 59100 M⁻¹ s⁻¹ with horse serum albumin. Further, the Response in the test with human serum albumin [3] is 0.25 nm; with human serum albumin [11] it was 0.438 nm. In addition, the binding result with cat serum albumin is given as “no binding (tested: 800 nM (highest concentration))”; with pig serum albumin, “no binding (tested: 800 nM (highest concentration))”; with bovine serum albumin it was “no binding”.

B6: SA1_S30K humanized variant 3 VHH (VHH)
VHH: B2 VHH with Q1E, A14P, S30K, A75S, T85S, Q119L
notes: also called h3
B6: the figures for the Kd (in the test with human serum albumin [13]; in [14]) were 1.64 nM and 0.29 nM, respectively.

B7: SA1_S30K humanized variant 2 VHH (VHH)
VHH: B2 VHH with Q1E, A14P, S30K, A75S, H80Y, Q119L
notes: also called h2
On to B7, for which the results for the Kd (in the test with human serum albumin [13]; in [14]) were 1.53 nM and 0.5 nM, respectively.

B8: SA1_S30K humanized variant 1 VHH (VHH)
VHH: B2 VHH with Q1E, A14P, S30K, A75S, Q119L
notes: also called h1
For B8, the Kd with human serum albumin [13] was 1.33 nM; in [14] it was 0.36 nM.

B9: SA1_S30K humanized variant 4 VHH (VHH)
VHH: B2 VHH with Q1E, A14P, S30K, A75S, H80Y, T85S, Q119L
notes: also called h4
Take B9: the Kd was 2.11 nM with human serum albumin [13] and 0.32 nM in test [14].

(Values after patent publication US20200255504A1 (VIB VZW, published 2020).)
